Test results taken from patent publication US20210221879A1.

Assays:
[1] = target: BSA cross-linked with A-peak (A-peak-BSA) (bovine) (UniProt P02769); assay: SPR, Biacore T200; A-peak-BSA amine-coupled to a CM5 chip (72 RU), PB-1 at 0.1953 to 50 nM, 1:1 binding model
[2] = target: BSA cross-linked with A-peak (A-peak-BSA) (bovine) (UniProt P02769); assay: cross-competition ELISA: unlabeled antibody varied (0.049 to 50 µg/mL), HRP-labeled SJ-5 as competitor on immobilised A-peak-BSA, absorbance 450-650 nm
[3] = target: BSA modified with the novel structure derived from Glycer-AGEs (GAL13-BSA) (bovine) (UniProt P02769); assay: SPR, Biacore T200; GAL13-BSA amine-coupled to a CM5 chip
[4] = target: Bovine serum albumin containing AGEs derived from glyceraldehyde (Glycer-AGEs-BSA) (bovine) (UniProt P02769); assay: SPR, Biacore T200; Glycer-AGEs-BSA amine-coupled to a CM5 chip, antibody at 0 to 400 nM
[5] = target: BSA modified with the novel structure derived from Glycer-AGEs (GAL13-BSA) (bovine) (UniProt P02769); assay: direct ELISA: POD-labeled antibody on immobilised GAL13-BSA (1 µg/mL), absorbance at 490 nm

Row | Kd [1] [nM] | IC50 (read off the curve) [2] [µg/mL] | Kd [3] [nM] | Kd [4] [nM] | EC50 (read off the curve) [5] [µg/mL] | Binder
1 | 4.15 | 2 | – | – | – | novel monoclonal antibody PB-1 (antibody, V domains shown) VH: EVRLQQSGPELVKPGTSVKISCKASGYSFTGYYMHWVKQSPVKSLEWIGRIIPYNGATSYNQNFKDKASLTVDKSSRTAYMDLHSLTSEDSAVYYCARSRYYGRAPYYFDYWGQGTTLTVSS VL: DVVVTQTPLSLPVSLGDQASISCRSSQSIVHSNGNTYLEWYLQKPGQSPKLLIYKVSNRFSGVPDRISGSGSGTDFTLKISRVEAGDLGVYSCFQGSHVPFTFGSGTKLEIK
2 | – | – | 87.5 | 57.4 | 0.3 | novel monoclonal antibody SJ-5 (antibody, V domains shown) VH: EVMLVESGGRLVKPGGSLKLSCAASGFTFSSYGMSWVRQTPEKRLEWVATISGGGSYTYYPDSVKGRFTISRDNVKNNLYLQMSSLRSEDTALYYCARRGAYGDYGWFAYWGQGTLVTVSA VL: DIVLTQSPATLSVTPGDSVSLSCRASQSINNNLHWYQQKSHESPRLLIKCASQSISGIPSRFSGSGSGTDFTLSINSVETEDFGMYFCQQSNSWPLTFGAGTKLELK
